Test results taken from the Immune Epitope Database (IEDB).

Tests used:
Test in all cases: IEDB peptide-MHC binding, purified MHC/competitive/radioactivity; filed as Kd, often an IC50 or EC50 that approximates it; ≥ and ≤ were set here for values at or beyond the usual limits of such assays
HLA-A*31:01 = molecular target: HLA-A*31:01
HLA-A*33:01 = molecular target: HLA-A*33:01
HLA-A*68:01 = molecular target: HLA-A*68:01
HLA-A*03:01 = molecular target: HLA-A*03:01
HLA-A*11:01 = molecular target: HLA-A*11:01
HLA-A*02:03 = molecular target: HLA-A*02:03
[1] = source organism: SARS coronavirus Tor2
[2] = source organism: Vaccinia virus WR
[3] = source organism: Dengue virus 4 Philippines/H241/1956
[4] = source organism: Dengue virus 2 Peru/IQT2913/1996
[5] = source organism: Dengue virus 1 Nauru/West Pac/1974
[6] = source organism: Dengue virus 3 Martinique/1243/1999
[7] = source organism: Dengue virus 1 Brazil/97-11/1997
[8] = source organism: Lassa virus Josiah
[9] = source organism: Dengue virus 3 Sri Lanka/1266/2000
[10] = source organism: Mammarenavirus guanaritoense

AFQHQNSKK
Kd (HLA-A*31:01; [1]): 672 nM
Kd (HLA-A*33:01; [1]): ≥ 22.6 µM
Kd (HLA-A*68:01; [1]): 3920 nM
Kd (HLA-A*03:01; [1]): 13900 nM
Kd (HLA-A*11:01; [1]): 3000 nM

ALDEKWNEFK
Kd (HLA-A*31:01; [2]): 7280 nM
Kd (HLA-A*33:01; [2]): ≥ 70 µM
Kd (HLA-A*68:01; [2]): 9850 nM
Kd (HLA-A*03:01; [2]): 192 nM
Kd (HLA-A*11:01; [2]): 98.2 nM

ALGGSIAVK
Kd (HLA-A*31:01; [1]): 12500 nM
Kd (HLA-A*33:01; [1]): ≥ 77.7 µM
Kd (HLA-A*68:01; [1]): 11200 nM
Kd (HLA-A*03:01; [1]): 15.2 nM
Kd (HLA-A*11:01; [1]): 171 nM

ALKYLPIDK
Kd (HLA-A*31:01; [1]): 6570 nM
Kd (HLA-A*33:01; [1]): ≥ 48.5 µM
Kd (HLA-A*68:01; [1]): 2370 nM
Kd (HLA-A*03:01; [1]): 299 nM
Kd (HLA-A*11:01; [1]): 878 nM

AQYKCVTIKY
Kd (HLA-A*31:01; [2]): 2140 nM
Kd (HLA-A*33:01; [2]): ≥ 21.9 µM
Kd (HLA-A*68:01; [2]): 967 nM
Kd (HLA-A*03:01; [2]): 220 nM
Kd (HLA-A*11:01; [2]): 80.1 nM

ATLTEGVYR
Kd (HLA-A*31:01; [3]): 7.26 nM

ATSTGNYNYK
Kd (HLA-A*31:01; [1]): 69.5 nM
Kd (HLA-A*33:01; [1]): ≥ 26.3 µM
Kd (HLA-A*68:01; [1]): 9.61 nM
Kd (HLA-A*03:01; [1]): 4.34 nM
Kd (HLA-A*11:01; [1]): 1.38 nM

ATTFITPMLR
Kd (HLA-A*31:01; [4]): 48.6 nM
Kd (HLA-A*68:01; [4]): 15.3 nM
Kd (HLA-A*11:01; [4]): 14 nM

ATTIITPMMR
Kd (HLA-A*31:01; [5]): ≥ 70000 nM
Kd (HLA-A*68:01; [5]): 386 nM
Kd (HLA-A*11:01; [5]): 162 nM

AVSTANIFR
Kd (HLA-A*68:01; [3]): 29.6 nM
Kd (HLA-A*11:01; [3]): 90.7 nM

AVVLMGLDK
Kd (HLA-A*11:01; [6]): 2470 nM

CAMPYNILDR
Kd (HLA-A*31:01; [2]): 301 nM
Kd (HLA-A*33:01; [2]): 0.64 µM
Kd (HLA-A*68:01; [2]): 8.75 nM
Kd (HLA-A*03:01; [2]): 7240 nM
Kd (HLA-A*11:01; [2]): 187 nM

CFKEASFSKR
Kd (HLA-A*31:01; [2]): 35.9 nM
Kd (HLA-A*33:01; [2]): 0.0614 µM
Kd (HLA-A*68:01; [2]): 1640 nM
Kd (HLA-A*03:01; [2]): 9160 nM
Kd (HLA-A*11:01; [2]): ≥ 43600 nM

CTGSFKLEK
Kd (HLA-A*11:01; [7]): 39.8 nM

DISEMGANFR
Kd (HLA-A*33:01; [7]): 0.231 µM
Kd (HLA-A*68:01; [7]): 12.9 nM

DTQMRTPLHK
Kd (HLA-A*31:01; [2]): ≥ 52100 nM
Kd (HLA-A*33:01; [2]): 12.5 µM
Kd (HLA-A*68:01; [2]): 1480 nM
Kd (HLA-A*03:01; [2]): 4160 nM
Kd (HLA-A*11:01; [2]): 78 nM

DVPSPAAAQK
Kd (HLA-A*68:01; [3]): 192 nM

ELGKKKTPR
Kd (HLA-A*33:01; source organism: Dengue virus 2 Jamaica/1409/1983): 0.116 µM

ESRDRKWLYY
Kd (HLA-A*31:01; [2]): ≥ 70000 nM
Kd (HLA-A*33:01; [2]): ≥ 70 µM
Kd (HLA-A*68:01; [2]): 10800 nM
Kd (HLA-A*03:01; [2]): 11500 nM
Kd (HLA-A*11:01; [2]): ≥ 59000 nM

ETTKHAVSR
Kd (HLA-A*33:01; [7]): 0.0106 µM
Kd (HLA-A*68:01; [7]): 10.3 nM

EVGAIALDFK
Kd (HLA-A*68:01; [7]): 15.6 nM

FIDVHIPKFK
Kd (HLA-A*31:01; [2]): 2700 nM
Kd (HLA-A*33:01; [2]): 13.1 µM
Kd (HLA-A*68:01; [2]): 108 nM
Kd (HLA-A*03:01; [2]): 1060 nM
Kd (HLA-A*11:01; [2]): 179 nM

FTTNIWLKLK
Kd (HLA-A*68:01; source organism: Dengue virus 2 16681-PDK53): 12.5 nM

FVSLVKKNK
Kd (HLA-A*31:01; [2]): ≥ 77900 nM
Kd (HLA-A*33:01; [2]): ≥ 33.6 µM
Kd (HLA-A*68:01; [2]): 215 nM
Kd (HLA-A*03:01; [2]): ≥ 78000 nM
Kd (HLA-A*11:01; [2]): 120 nM

GICSCGAFK
Kd (HLA-A*11:01; source organism: Lymphocytic choriomeningitis virus (strain Armstrong)): 54.6 nM

GIGTFLHYK
Kd (HLA-A*31:01; [2]): 65.7 nM
Kd (HLA-A*33:01; [2]): 3.78 µM
Kd (HLA-A*68:01; [2]): 24 nM
Kd (HLA-A*03:01; [2]): 7.8 nM
Kd (HLA-A*11:01; [2]): 0.585 nM

GLAMGIMMLK
Kd (HLA-A*03:01; [7]): 12.1 nM
Kd (HLA-A*11:01; [7]): 156 nM

GSYIALDSGR
Kd (HLA-A*31:01; [8]): 78.3 nM
Kd (HLA-A*33:01; [8]): 1.16 µM
Kd (HLA-A*68:01; [8]): 276 nM
Kd (HLA-A*03:01; [8]): 4230 nM
Kd (HLA-A*11:01; [8]): 150 nM

HATMLDVDLR
Kd (HLA-A*68:01; source organism: Dengue virus 1 Singapore/S275/1990): 90.6 nM

HIKTIAVSVY
Kd (HLA-A*31:01; [2]): 914 nM
Kd (HLA-A*33:01; [2]): 13.8 µM
Kd (HLA-A*68:01; [2]): 5820 nM
Kd (HLA-A*03:01; [2]): 257 nM
Kd (HLA-A*11:01; [2]): 8240 nM

HIVGKSCPK
Kd (HLA-A*31:01; [8]): ≥ 45000 nM
Kd (HLA-A*33:01; [8]): ≥ 24.2 µM
Kd (HLA-A*68:01; [8]): ≥ 26700 nM
Kd (HLA-A*03:01; [8]): 11000 nM
Kd (HLA-A*11:01; [8]): 15000 nM

HLYLQYIRK
Kd (HLA-A*31:01; [1]): 516 nM
Kd (HLA-A*33:01; [1]): 6.9 µM
Kd (HLA-A*68:01; [1]): 1610 nM
Kd (HLA-A*03:01; [1]): 0.172 nM
Kd (HLA-A*11:01; [1]): 14.8 nM

HMVRCCKVY
Kd (HLA-A*31:01; [2]): 10700 nM
Kd (HLA-A*33:01; [2]): ≥ 45.8 µM
Kd (HLA-A*68:01; [2]): 780 nM
Kd (HLA-A*03:01; [2]): 399 nM
Kd (HLA-A*11:01; [2]): ≥ 40000 nM

HTSVSAKQLR
Kd (HLA-A*31:01; [2]): 162 nM
Kd (HLA-A*33:01; [2]): 1.14 µM
Kd (HLA-A*68:01; [2]): 16.3 nM
Kd (HLA-A*03:01; [2]): 2510 nM
Kd (HLA-A*11:01; [2]): 274 nM

IASKINNNR
Kd (HLA-A*31:01; [2]): 28.8 nM
Kd (HLA-A*33:01; [2]): 0.0766 µM
Kd (HLA-A*68:01; [2]): 1.86 nM
Kd (HLA-A*03:01; [2]): 13200 nM
Kd (HLA-A*11:01; [2]): 329 nM

IFPANINDK
Kd (HLA-A*31:01; [2]): 3580 nM
Kd (HLA-A*33:01; [2]): 12.5 µM
Kd (HLA-A*68:01; [2]): 1200 nM
Kd (HLA-A*03:01; [2]): 2240 nM
Kd (HLA-A*11:01; [2]): 1090 nM

IFTLTVAWR
Kd (HLA-A*31:01; [9]): 163 nM
Kd (HLA-A*33:01; [9]): 0.00589 µM

ILFMEMFFDY
Kd (HLA-A*31:01; [2]): 5470 nM
Kd (HLA-A*33:01; [2]): ≥ 64.3 µM
Kd (HLA-A*68:01; [2]): 845 nM
Kd (HLA-A*03:01; [2]): 31.6 nM
Kd (HLA-A*11:01; [2]): 121 nM

ILHVDNHIGI
Kd (HLA-A*02:03; source organism: Homo sapiens): 11.1 nM

ILKEPVHGV
Kd (HLA-A*02:03; source organism: Human immunodeficiency virus type 1 BH10): 6.3 nM

ILKINSVKYY
Kd (HLA-A*31:01; [2]): 4910 nM
Kd (HLA-A*33:01; [2]): 11.2 µM
Kd (HLA-A*68:01; [2]): 1420 nM
Kd (HLA-A*03:01; [2]): 17200 nM
Kd (HLA-A*11:01; [2]): 13500 nM

IMAYVNQAHH
Kd (HLA-A*31:01; [10]): 1120 nM
Kd (HLA-A*33:01; [10]): 3.92 µM
Kd (HLA-A*68:01; [10]): 97 nM
Kd (HLA-A*03:01; [10]): 4010 nM

IMKDGRKLV
Kd (HLA-A*02:03; [6]): 558 nM

IMQRGLFGK
Kd (HLA-A*03:01; [3]): 85.6 nM
Kd (HLA-A*11:01; [3]): 327 nM
